T1: EsCas13d, nuclease-dead (Eubacterium siraeum, UniProt B0MS50, R295A;H300A;R849A;H854A)
T1 sequence: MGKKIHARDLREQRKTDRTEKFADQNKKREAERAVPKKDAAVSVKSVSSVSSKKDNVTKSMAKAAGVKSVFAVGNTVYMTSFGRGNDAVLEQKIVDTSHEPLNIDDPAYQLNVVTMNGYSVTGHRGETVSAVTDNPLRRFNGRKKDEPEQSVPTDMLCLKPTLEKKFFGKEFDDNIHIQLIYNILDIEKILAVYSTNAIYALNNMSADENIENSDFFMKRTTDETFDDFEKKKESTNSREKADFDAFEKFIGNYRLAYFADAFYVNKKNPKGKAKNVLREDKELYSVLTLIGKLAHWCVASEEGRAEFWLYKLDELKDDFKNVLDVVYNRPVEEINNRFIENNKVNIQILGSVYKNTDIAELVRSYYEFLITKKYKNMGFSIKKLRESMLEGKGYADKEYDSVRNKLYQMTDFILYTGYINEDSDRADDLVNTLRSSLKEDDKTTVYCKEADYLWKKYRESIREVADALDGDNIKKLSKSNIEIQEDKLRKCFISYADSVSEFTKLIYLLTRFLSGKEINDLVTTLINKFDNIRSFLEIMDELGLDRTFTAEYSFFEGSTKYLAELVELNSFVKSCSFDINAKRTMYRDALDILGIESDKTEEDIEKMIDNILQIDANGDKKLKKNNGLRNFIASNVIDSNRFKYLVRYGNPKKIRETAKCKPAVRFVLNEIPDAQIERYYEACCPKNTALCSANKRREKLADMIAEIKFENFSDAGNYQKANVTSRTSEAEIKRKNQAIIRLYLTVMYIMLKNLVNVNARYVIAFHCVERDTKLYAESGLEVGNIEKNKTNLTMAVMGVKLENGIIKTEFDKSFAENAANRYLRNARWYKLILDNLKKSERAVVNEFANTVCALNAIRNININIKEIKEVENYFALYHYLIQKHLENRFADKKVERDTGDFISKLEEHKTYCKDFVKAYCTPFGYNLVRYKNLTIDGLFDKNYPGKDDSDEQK


The binders below were run against T1, EsCas13d, nuclease-dead (assay: crRNA (strand 1, pre-loaded); Mg2+; 40 mM Tris-HCl pH 7.5, 150 mM NaCl, 6 mM MgCl2, 1 mM DTT, 0.1% Tween-20, 0.2 mg/ml BSA; 25 C; 10 min per concentration, then washed). Settings: tags: His6-TwinStrep-SUMO cleaved; N-terminal SNAP kept (SNAP-Surface 488); label: 3' end held by stalled T7 RNA polymerase.

Binder | Kd [nM]
target 2 MT 5'PFS GUA 3'PFS UCU (mixed) RNA 1: CACCCGUGCAAAAUUGCAGGGGUCUAAAACCUUCUCCAAAUUGUUUCAUCCU RNA 2: GGGAAUGGAUCCACAUCUACGAAUUCGUAAGGAUGAAACAAUUUGGAGAAGUCUAGAUCGGAAGAGCACACGU | 18.6 ± 2.7
target 2 MT 5'PFS UUU 3'PFS AAA (mixed) RNA 1: CACCCGUGCAAAAUUGCAGGGGUCUAAAACCUUCUCCAAAUUGUUUCAUCCU RNA 2: GGGAAUGGAUCCACAUCUACGAAUUCUUUAGGAUGAAACAAUUUGGAGAAGAAAAGAUCGGAAGAGCACACGU | 8.9 ± 1.2
target 2 MT 5'PFS UUU 3'PFS AAG (mixed) RNA 1: CACCCGUGCAAAAUUGCAGGGGUCUAAAACCUUCUCCAAAUUGUUUCAUCCU RNA 2: GGGAAUGGAUCCACAUCUACGAAUUCUUUAGGAUGAAACAAUUUGGAGAAGAAGAGAUCGGAAGAGCACACGU | 7.1 ± 0.9
target 2 MT 5'PFS GGC 3'PFS UAC (mixed) RNA 1: CACCCGUGCAAAAUUGCAGGGGUCUAAAACCUUCUCCAAAUUGUUUCAUCCU RNA 2: GGGAAUGGAUCCACAUCUACGAAUUCGGCAGGAUGAAACAAUUUGGAGAAGUACAGAUCGGAAGAGCACACGU | 18.9 ± 3.5
target 2 MT 5'PFS GGC 3'PFS CAC (mixed) RNA 1: CACCCGUGCAAAAUUGCAGGGGUCUAAAACCUUCUCCAAAUUGUUUCAUCCU RNA 2: GGGAAUGGAUCCACAUCUACGAAUUCGGCAGGAUGAAACAAUUUGGAGAAGCACAGAUCGGAAGAGCACACGU | 15.8 ± 3.1
target 2 MT 5'PFS UUU 3'PFS AAC (mixed) RNA 1: CACCCGUGCAAAAUUGCAGGGGUCUAAAACCUUCUCCAAAUUGUUUCAUCCU RNA 2: GGGAAUGGAUCCACAUCUACGAAUUCUUUAGGAUGAAACAAUUUGGAGAAGAACAGAUCGGAAGAGCACACGU | 7.3 ± 0.8
target 2 MT 5'PFS GUA 3'PFS AAG (mixed) RNA 1: CACCCGUGCAAAAUUGCAGGGGUCUAAAACCUUCUCCAAAUUGUUUCAUCCU RNA 2: GGGAAUGGAUCCACAUCUACGAAUUCGUAAGGAUGAAACAAUUUGGAGAAGAAGAGAUCGGAAGAGCACACGU | 7 ± 0.6
target 2 MT 5'PFS CAU 3'PFS CCA (mixed) RNA 1: CACCCGUGCAAAAUUGCAGGGGUCUAAAACCUUCUCCAAAUUGUUUCAUCCU RNA 2: GGGAAUGGAUCCACAUCUACGAAUUCCAUAGGAUGAAACAAUUUGGAGAAGCCAAGAUCGGAAGAGCACACGU | 11.5 ± 1.6
target 2 MT 5'PFS GGC 3'PFS CAU (mixed) RNA 1: CACCCGUGCAAAAUUGCAGGGGUCUAAAACCUUCUCCAAAUUGUUUCAUCCU RNA 2: GGGAAUGGAUCCACAUCUACGAAUUCGGCAGGAUGAAACAAUUUGGAGAAGCAUAGAUCGGAAGAGCACACGU | 14.4 ± 2
target 2 MT 5'PFS GAC 3'PFS CGG (mixed) RNA 1: CACCCGUGCAAAAUUGCAGGGGUCUAAAACCUUCUCCAAAUUGUUUCAUCCU RNA 2: GGGAAUGGAUCCACAUCUACGAAUUCGACAGGAUGAAACAAUUUGGAGAAGCGGAGAUCGGAAGAGCACACGU | 8.9 ± 1
target 2 MT 5'PFS GCU 3'PFS CCG (mixed) RNA 1: CACCCGUGCAAAAUUGCAGGGGUCUAAAACCUUCUCCAAAUUGUUUCAUCCU RNA 2: GGGAAUGGAUCCACAUCUACGAAUUCGCUAGGAUGAAACAAUUUGGAGAAGCCGAGAUCGGAAGAGCACACGU | 17.9 ± 3.4
target 2 MT 5'PFS AUA 3'PFS UAU (mixed) RNA 1: CACCCGUGCAAAAUUGCAGGGGUCUAAAACCUUCUCCAAAUUGUUUCAUCCU RNA 2: GGGAAUGGAUCCACAUCUACGAAUUCAUAAGGAUGAAACAAUUUGGAGAAGUAUAGAUCGGAAGAGCACACGU | 7.1 ± 1.4
target 2 MT 5'PFS AGU 3'PFS UCC (mixed) RNA 1: CACCCGUGCAAAAUUGCAGGGGUCUAAAACCUUCUCCAAAUUGUUUCAUCCU RNA 2: GGGAAUGGAUCCACAUCUACGAAUUCAGUAGGAUGAAACAAUUUGGAGAAGUCCAGAUCGGAAGAGCACACGU | ~51
target 2 MT 5'PFS GGC 3'PFS CAG (mixed) RNA 1: CACCCGUGCAAAAUUGCAGGGGUCUAAAACCUUCUCCAAAUUGUUUCAUCCU RNA 2: GGGAAUGGAUCCACAUCUACGAAUUCGGCAGGAUGAAACAAUUUGGAGAAGCAGAGAUCGGAAGAGCACACGU | 12.1 ± 1.4
target 2 MT 5'PFS GUA 3'PFS UCG (mixed) RNA 1: CACCCGUGCAAAAUUGCAGGGGUCUAAAACCUUCUCCAAAUUGUUUCAUCCU RNA 2: GGGAAUGGAUCCACAUCUACGAAUUCGUAAGGAUGAAACAAUUUGGAGAAGUCGAGAUCGGAAGAGCACACGU | 9.5 ± 0.7
target 2 MT 5'PFS GGC 3'PFS CAA (mixed) RNA 1: CACCCGUGCAAAAUUGCAGGGGUCUAAAACCUUCUCCAAAUUGUUUCAUCCU RNA 2: GGGAAUGGAUCCACAUCUACGAAUUCGGCAGGAUGAAACAAUUUGGAGAAGCAAAGAUCGGAAGAGCACACGU | 8.9 ± 1.7
target 2 MT 5'PFS CUU 3'PFS AUU (mixed) RNA 1: CACCCGUGCAAAAUUGCAGGGGUCUAAAACCUUCUCCAAAUUGUUUCAUCCU RNA 2: GGGAAUGGAUCCACAUCUACGAAUUCCUUAGGAUGAAACAAUUUGGAGAAGAUUAGAUCGGAAGAGCACACGU | 3.9 ± 0.4
target 2 MT 5'PFS AUA 3'PFS UAA (mixed) RNA 1: CACCCGUGCAAAAUUGCAGGGGUCUAAAACCUUCUCCAAAUUGUUUCAUCCU RNA 2: GGGAAUGGAUCCACAUCUACGAAUUCAUAAGGAUGAAACAAUUUGGAGAAGUAAAGAUCGGAAGAGCACACGU | 5.5 ± 1.1
target 2 MT 5'PFS GUA 3'PFS AAU (mixed) RNA 1: CACCCGUGCAAAAUUGCAGGGGUCUAAAACCUUCUCCAAAUUGUUUCAUCCU RNA 2: GGGAAUGGAUCCACAUCUACGAAUUCGUAAGGAUGAAACAAUUUGGAGAAGAAUAGAUCGGAAGAGCACACGU | 5.8 ± 0.6
target 2 MT 5'PFS AGU 3'PFS UCU (mixed) RNA 1: CACCCGUGCAAAAUUGCAGGGGUCUAAAACCUUCUCCAAAUUGUUUCAUCCU RNA 2: GGGAAUGGAUCCACAUCUACGAAUUCAGUAGGAUGAAACAAUUUGGAGAAGUCUAGAUCGGAAGAGCACACGU | 21.3 ± 3.4
target 2 MT 5'PFS GUA 3'PFS AAA (mixed) RNA 1: CACCCGUGCAAAAUUGCAGGGGUCUAAAACCUUCUCCAAAUUGUUUCAUCCU RNA 2: GGGAAUGGAUCCACAUCUACGAAUUCGUAAGGAUGAAACAAUUUGGAGAAGAAAAGAUCGGAAGAGCACACGU | 5.5 ± 0.7
target 2 MT 5'PFS CAU 3'PFS CCC (mixed) RNA 1: CACCCGUGCAAAAUUGCAGGGGUCUAAAACCUUCUCCAAAUUGUUUCAUCCU RNA 2: GGGAAUGGAUCCACAUCUACGAAUUCCAUAGGAUGAAACAAUUUGGAGAAGCCCAGAUCGGAAGAGCACACGU | 16 ± 6
target 2 MT 5'PFS CAU 3'PFS CCG (mixed) RNA 1: CACCCGUGCAAAAUUGCAGGGGUCUAAAACCUUCUCCAAAUUGUUUCAUCCU RNA 2: GGGAAUGGAUCCACAUCUACGAAUUCCAUAGGAUGAAACAAUUUGGAGAAGCCGAGAUCGGAAGAGCACACGU | 4.07 ± 0.31
target 2 MT 5'PFS UUU 3'PFS AAU (mixed) RNA 1: CACCCGUGCAAAAUUGCAGGGGUCUAAAACCUUCUCCAAAUUGUUUCAUCCU RNA 2: GGGAAUGGAUCCACAUCUACGAAUUCUUUAGGAUGAAACAAUUUGGAGAAGAAUAGAUCGGAAGAGCACACGU | 9.9 ± 1.2
target 2 MT 5'PFS AUA 3'PFS UAC (mixed) RNA 1: CACCCGUGCAAAAUUGCAGGGGUCUAAAACCUUCUCCAAAUUGUUUCAUCCU RNA 2: GGGAAUGGAUCCACAUCUACGAAUUCAUAAGGAUGAAACAAUUUGGAGAAGUACAGAUCGGAAGAGCACACGU | 7.2 ± 1.6
target 1 C2A,A9U (mixed) RNA 1: CACCCGUGCAAAAAUGCAGGGGUCUAAAACUGAGCGGAUAACCUCUCUAUGG RNA 2: GGGAAUGGAUCCACAUCUACGAAUUCGUACCAUAGAGAGGUUUUCCGCUAACCGAGAUCGGAAGAGCACACGU | 8.3 ± 0.4
target 1 insC 3' of 16,insG 3' of 7 (mixed) RNA 1: CACCCGUGCAAAAAUGCAGGGGUCUAAAACUGAGCGGAUAACCUCUCUAUGG RNA 2: GGGAAUGGAUCCACAUCUACGAAUUCGUACCAUAGACGAGGUUAUCGCGCUCACCGAGAUCGGAAGAGCACACGU | 66 ± 14
target 1 insG 3' of 20,insG 3' of 8 (mixed) RNA 1: CACCCGUGCAAAAAUGCAGGGGUCUAAAACUGAGCGGAUAACCUCUCUAUGG RNA 2: GGGAAUGGAUCCACAUCUACGAAUUCGUACCAGUAGAGAGGUUAUGCCGCUCACCGAGAUCGGAAGAGCACACGU | 40 ± 4
